This note sets out measurements from patent publication WO2015037992A1 (dated 2015).

The target in the test is T1, HPeV1 VP1 (recombinant capsid protein, his-tag) (human parechovirus 1 (Harris), UniProt Q66578 543-773).
T1 sequence: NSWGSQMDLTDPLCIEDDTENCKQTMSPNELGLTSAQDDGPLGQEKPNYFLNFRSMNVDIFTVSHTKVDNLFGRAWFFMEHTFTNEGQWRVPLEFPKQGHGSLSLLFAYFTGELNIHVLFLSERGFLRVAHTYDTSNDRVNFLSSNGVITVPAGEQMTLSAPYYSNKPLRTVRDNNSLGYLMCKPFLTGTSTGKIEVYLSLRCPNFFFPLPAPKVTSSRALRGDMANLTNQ

B1: AM18 (antibody, V domains shown)
VH: QVQFMQSGAEVKKPGASVKVSCKASGDTFSNFAVHWVRQAPGQRPEWMGWVNAGDSNLKYSQRFQGRLIITRDTFASTVYLDLSSLTSKDTAVYYCAGGNFGGNSATFDYWGQGTLVTVSS
VL: EIVLTQSPGTLSLSPGERATLSCRASQSVSDNYLAWYQQKPGQAPRLLIYGASHKSTGIPDRFSGSGSGTDFTLTISRLEPEDFAVYYCQQYGGSPLTFGGGTKVEIKR
Usually Kd stands for the equilibrium constant for the complex coming apart. Broadly, the koff is the first-order rate constant of dissociation. One may read the kon as the second-order rate constant of association. Consider B1, for which the Kd is 0.0115 nM, the koff amounted to 2.3e-06 s⁻¹ and the on-rate constant (kon) was found to be 208000 M⁻¹ s⁻¹.
